Results published in paper PMC4345311.

B1: PR10.1-8E-M1 (structured_RNA)
RNA: GGGUUACCUAGGUGUAGAUGCUCUUAAGUGUAACUUCUCAUAACAUCCGGAGGCACGUACUUCCGGGGACCUAAGUGACGUCUGAACUGCUUCGAA
B2: PR10.1-8E-M4 (structured_RNA)
RNA: GGGUUACCUAGGUGUAGAUGCUACGUAGUGUAACUUCUCAUAACAUCCGGAGGCUUUUACUUCCGGGGACCUAAGUGACGUCUGAACUGCUUCGAA
B3: PR10.1-8E-M5 (structured_RNA)
RNA: GGGUUACCUAGGUGUAGUACGACUUAAGUGUAACUUCUCAUAACAUCCGGAGGCUUUUACUUCCGGGGACCUAAGUGACGUCUGAACUGCUUCGAA
B4: PR10.1-8E-M6 (structured_RNA)
RNA: GGGUUACCUAGGUGUAGAUGCUCUUAUCACAAACUUCUCAUAACAUCCGGAGGCUUUUACUUCCGGGGACCUAAGUGACGUCUGAACUGCUUCGAA
B5: PR10.1-8E-M10 (structured_RNA)
RNA: GGCAGUGGAUCCAGUAGAUGCUCUUAAGUGUAACUUCUCAUAACAUCCGGAGGCUUUUACUUCCGGGGACCUAAGUGACGUCUGAACUGCUUCGAA
B6: PR10.1-8E-M8 (structured_RNA)
RNA: GGGUUACCUAGGUGUAGUGUGACUUAUCGUAAACUUCUCAUAACAUCCGGAGGCUUUUACUUCCGGGGACCUAAGUGACGUCUGAACUGCUUCGAA
B7: PR10.1-8E-M2 (structured_RNA)
RNA: GGGUUACCUAGGUGUAGAUGCUCUUAAGUGUAACUUCUCAUAACAUCCGGAGGCUUUUAGAAGGCCCGACCUAAGUGACGUCUGAACUGCUUCGAA
B8: PR10.1-8E-M9 (structured_RNA)
RNA: GGGUUACCUAGGUGUAGAUGCUCUUAAGUGUAACUUCUCAUAACAUCCGGAGGCUUUUACUUCCGGGGUGGAUCCAUUGGUCUGAACUGCUUCGAA
B9: PR10.1-8E-D3CR (structured_RNA)
RNA: GGGUUACCUAGGUGUAGAUGCUCUUAAGUGUAACUUCUCAUAACAUCCGGAGGCUUUUACUUCCGGGG

Each binder was assayed against HIV-1 protease (PR), wild-type (HIV-1, UniProt P04585 489-587) (assay: filter binding).
B1: no binding.
B2: no binding.
B3: no binding.
B4: no binding.
B5: no binding.
For B6, the Kd was 0.386 ± 0.063 µM.
B7: no binding.
B8: no binding.
B9: no binding.
